Experimental data as given in publication PMC7837216, “ISRIB Blunts the Integrated Stress Response by Allosterically Antagonising the Inhibitory Effect of Phosphorylated eIF2 on eIF2B” (Molecular Cell, 2021).
pIC50: −log10 of the molar value.

What was measured:
[1] = target: human eIF2B decamer, wild type (human) (UniProt Q14232); assay: fluorescence polarisation; FAM-ISRIB (2.5-5 nM) bound to eIF2B, displaced by rising eIF2(αP) (0-2.5 μM) or P-eIF2α-NTD (0-40 μM); equilibrium, 30 min at room temperature; 20 mM HEPES-KOH pH 7.4, 150 mM KCl, 2 mM MgCl2, 1 mM TCEP, 0.05 mg/mL BSA, 0.01% Triton X-100; four-parameter log[inhibitor] fit
[2] = target: biotinylated, phosphorylated N-terminal domain of human eIF2α (human) (UniProt P05198); assay: BLI; biotinylated P-eIF2α-NTD on streptavidin sensors, eIF2B in solution, without ISRIB (DMSO); 30°C; 20 mM HEPES pH 7.4, 150 mM KCl, 2 mM MgCl2, 1 mM TCEP, 0.05 mg/mL BSA, 0.01% Triton X-100; plateau values of 2-phase association fits against eIF2B concentration (9-150 nM)
[3] = target: biotinylated, phosphorylated N-terminal domain of human eIF2α (human) (UniProt P05198); assay: BLI; as a3 but with ISRIB (1 μM) in the association and dissociation buffer

Substance	pIC50 [1]	K1/2max [2] [nM]	K1/2max [3] [nM]
phosphorylated human eIF2 trimer, eIF2(αP) (from UniProt P05198 1-315; P20042 1-333; P41091 1-472) (complex)	6.60	–	–
biotinylated, phosphorylated N-terminal domain of human eIF2α (from UniProt P05198 1-187) (domain or fragment)	5.52	–	–
human eIF2B decamer, wild type (from UniProt Q14232 1-305; P49770 1-351; Q9NR50 1-452; Q9UI10 1-523; Q13144 1-721) (complex)	–	15.2	29.8
